Numbered stars: 1 amine (or outer) side, 2 acyl side, 3 side chain; on linkers, the order of the positions; unused ones are H or OH. Bridge positions count the residues as written; N and C are the ends. Side chains are listed from the residue outwards. Ends that are not written are not given here. * marks the point of attachment. C20 diacid = O=C(O)CCCCCCCCCCCCCCCCCCC(=O)*; γGlu = O=C(O)[C@H](CCC(=O)[*:2])N[*:1]; AEEA = NCCOCCOCC(=O)O

The values below come from patent publication US20140087995A1 (published 2014).

First the molecules themselves.
T1: human calcitonin receptor (human, UniProt P30988 25-474)
T1 sequence (looked up): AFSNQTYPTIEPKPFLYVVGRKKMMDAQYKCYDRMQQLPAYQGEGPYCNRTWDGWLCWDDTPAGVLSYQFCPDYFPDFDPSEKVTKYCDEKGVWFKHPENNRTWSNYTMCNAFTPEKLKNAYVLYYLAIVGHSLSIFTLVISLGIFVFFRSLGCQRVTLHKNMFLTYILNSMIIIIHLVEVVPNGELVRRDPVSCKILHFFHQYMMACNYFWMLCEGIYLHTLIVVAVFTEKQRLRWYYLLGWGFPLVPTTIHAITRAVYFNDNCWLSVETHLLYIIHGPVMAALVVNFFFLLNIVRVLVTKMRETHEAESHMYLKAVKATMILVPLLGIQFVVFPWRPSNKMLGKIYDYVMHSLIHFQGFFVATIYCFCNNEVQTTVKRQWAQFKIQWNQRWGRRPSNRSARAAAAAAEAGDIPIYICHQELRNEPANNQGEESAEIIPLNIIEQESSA

B1: N^ε1-[2-[2-[2-[[2-[2-[2-[[(4S)-4-carboxy-4-(19-carboxynonadecanoylamino)butanoyl]amino]ethoxy]ethoxy]acetyl]amino]ethoxy]ethoxy]acetyl]-[Arg17,Pro21,Pro27,Glu35 … (peptide)
peptide: K([AEEA-AEEA-γGlu-C20 diacid])CNTATCATQRLANFLRHSSPNFGAIPSSTNVGSETY-NH2
modifications: disulfide 2-7; N-terminus assumed
SMILES: CC[C@H](C)[C@H](NC(=O)[C@H](C)NC(=O)CNC(=O)[C@H](Cc1ccccc1)NC(=O)[C@H](CC(N)=O)NC(=O)[C@@H]1CCCN1C(=O)[C@H](CO)NC(=O)[C@H](CO)NC(=O)[C@H](Cc1c[nH]cn1)NC(=O)[C@H](CCCNC(=N)N)NC(=O)[C@H](CC(C)C)NC(=O)[C@H](Cc1ccccc1)NC(=O)[C@H](CC(N)=O)NC(=O)[C@H](C)NC(=O)[C@H](CC(C)C)NC(=O)[C@H](CCCNC(=N)N)NC(=O)[C@H](CCC(N)=O)NC(=O)[C@@H](NC(=O)[C@H](C)NC(=O)[C@@H]1CSSC[C@H](NC(=O)[C@@H](N)CCCCNC(=O)COCCOCCNC(=O)COCCOCCNC(=O)CC[C@H](NC(=O)CCCCCCCCCCCCCCCCCCC(=O)O)C(=O)O)C(=O)N[C@@H](CC(N)=O)C(=O)N[C@@H]([C@@H](C)O)C(=O)N[C@@H](C)C(=O)N[C@@H]([C@@H](C)O)C(=O)N1)[C@@H](C)O)C(=O)N1CCC[C@H]1C(=O)N[C@@H](CO)C(=O)N[C@@H](CO)C(=O)N[C@H](C(=O)N[C@@H](CC(N)=O)C(=O)N[C@H](C(=O)NCC(=O)N[C@@H](CO)C(=O)N[C@@H](CCC(=O)O)C(=O)N[C@H](C(=O)N[C@@H](Cc1ccc(O)cc1)C(N)=O)[C@@H](C)O)C(C)C)[C@@H](C)O
notes: h-amylin derivative; disulfide bridge and C-terminal amide as told for human amylin; also called compound 25
B2: N^ε1-[2-[2-[2-[[(4S)-4-carboxy-4-(19-carboxynonadecanoylamino)butanoyl]amino]ethoxy]ethoxy]acetyl]-[Arg17,Pro21,Pro27,Pro31]-h-amylin (peptide)
peptide: K([AEEA-γGlu-C20 diacid])CNTATCATQRLANFLRHSSPNFGAIPSSTPVGSNTY-NH2
modifications: disulfide 2-7; N-terminus assumed
SMILES: CC[C@H](C)[C@H](NC(=O)[C@H](C)NC(=O)CNC(=O)[C@H](Cc1ccccc1)NC(=O)[C@H](CC(N)=O)NC(=O)[C@@H]1CCCN1C(=O)[C@H](CO)NC(=O)[C@H](CO)NC(=O)[C@H](Cc1c[nH]cn1)NC(=O)[C@H](CCCNC(=N)N)NC(=O)[C@H](CC(C)C)NC(=O)[C@H](Cc1ccccc1)NC(=O)[C@H](CC(N)=O)NC(=O)[C@H](C)NC(=O)[C@H](CC(C)C)NC(=O)[C@H](CCCNC(=N)N)NC(=O)[C@H](CCC(N)=O)NC(=O)[C@@H](NC(=O)[C@H](C)NC(=O)[C@@H]1CSSC[C@H](NC(=O)[C@@H](N)CCCCNC(=O)COCCOCCNC(=O)CC[C@H](NC(=O)CCCCCCCCCCCCCCCCCCC(=O)O)C(=O)O)C(=O)N[C@@H](CC(N)=O)C(=O)N[C@@H]([C@@H](C)O)C(=O)N[C@@H](C)C(=O)N[C@@H]([C@@H](C)O)C(=O)N1)[C@@H](C)O)C(=O)N1CCC[C@H]1C(=O)N[C@@H](CO)C(=O)N[C@@H](CO)C(=O)N[C@H](C(=O)N1CCC[C@H]1C(=O)N[C@H](C(=O)NCC(=O)N[C@@H](CO)C(=O)N[C@@H](CC(N)=O)C(=O)N[C@H](C(=O)N[C@@H](Cc1ccc(O)cc1)C(N)=O)[C@@H](C)O)C(C)C)[C@@H](C)O
notes: h-amylin derivative; disulfide bridge and C-terminal amide as told for human amylin; also called compound 49
B3: N^ε1-[(4S)-4-carboxy-4-(19-carboxynonadecanoylamino)butanoyl]-[Arg17,Pro21,Pro27,Glu35]-h-amylin (peptide)
peptide: K([γGlu-C20 diacid])CNTATCATQRLANFLRHSSPNFGAIPSSTNVGSETY-NH2
modifications: disulfide 2-7; N-terminus assumed
SMILES: CC[C@H](C)[C@H](NC(=O)[C@H](C)NC(=O)CNC(=O)[C@H](Cc1ccccc1)NC(=O)[C@H](CC(N)=O)NC(=O)[C@@H]1CCCN1C(=O)[C@H](CO)NC(=O)[C@H](CO)NC(=O)[C@H](Cc1c[nH]cn1)NC(=O)[C@H](CCCNC(=N)N)NC(=O)[C@H](CC(C)C)NC(=O)[C@H](Cc1ccccc1)NC(=O)[C@H](CC(N)=O)NC(=O)[C@H](C)NC(=O)[C@H](CC(C)C)NC(=O)[C@H](CCCNC(=N)N)NC(=O)[C@H](CCC(N)=O)NC(=O)[C@@H](NC(=O)[C@H](C)NC(=O)[C@@H]1CSSC[C@H](NC(=O)[C@@H](N)CCCCNC(=O)CC[C@H](NC(=O)CCCCCCCCCCCCCCCCCCC(=O)O)C(=O)O)C(=O)N[C@@H](CC(N)=O)C(=O)N[C@@H]([C@@H](C)O)C(=O)N[C@@H](C)C(=O)N[C@@H]([C@@H](C)O)C(=O)N1)[C@@H](C)O)C(=O)N1CCC[C@H]1C(=O)N[C@@H](CO)C(=O)N[C@@H](CO)C(=O)N[C@H](C(=O)N[C@@H](CC(N)=O)C(=O)N[C@H](C(=O)NCC(=O)N[C@@H](CO)C(=O)N[C@@H](CCC(=O)O)C(=O)N[C@H](C(=O)N[C@@H](Cc1ccc(O)cc1)C(N)=O)[C@@H](C)O)C(C)C)[C@@H](C)O
notes: h-amylin derivative; disulfide bridge and C-terminal amide as told for human amylin; also called compound 27
B4: N^ε1-[2-[2-[2-[[(4S)-4-carboxy-4-(19-carboxynonadecanoylamino)butanoyl]amino]ethoxy]ethoxy]acetyl]-[Arg17,Pro21,Pro27,Pro34]-h-amylin (peptide)
peptide: K([AEEA-γGlu-C20 diacid])CNTATCATQRLANFLRHSSPNFGAIPSSTNVGPNTY-NH2
modifications: disulfide 2-7; N-terminus assumed
SMILES: CC[C@H](C)[C@H](NC(=O)[C@H](C)NC(=O)CNC(=O)[C@H](Cc1ccccc1)NC(=O)[C@H](CC(N)=O)NC(=O)[C@@H]1CCCN1C(=O)[C@H](CO)NC(=O)[C@H](CO)NC(=O)[C@H](Cc1c[nH]cn1)NC(=O)[C@H](CCCNC(=N)N)NC(=O)[C@H](CC(C)C)NC(=O)[C@H](Cc1ccccc1)NC(=O)[C@H](CC(N)=O)NC(=O)[C@H](C)NC(=O)[C@H](CC(C)C)NC(=O)[C@H](CCCNC(=N)N)NC(=O)[C@H](CCC(N)=O)NC(=O)[C@@H](NC(=O)[C@H](C)NC(=O)[C@@H]1CSSC[C@H](NC(=O)[C@@H](N)CCCCNC(=O)COCCOCCNC(=O)CC[C@H](NC(=O)CCCCCCCCCCCCCCCCCCC(=O)O)C(=O)O)C(=O)N[C@@H](CC(N)=O)C(=O)N[C@@H]([C@@H](C)O)C(=O)N[C@@H](C)C(=O)N[C@@H]([C@@H](C)O)C(=O)N1)[C@@H](C)O)C(=O)N1CCC[C@H]1C(=O)N[C@@H](CO)C(=O)N[C@@H](CO)C(=O)N[C@H](C(=O)N[C@@H](CC(N)=O)C(=O)N[C@H](C(=O)NCC(=O)N1CCC[C@H]1C(=O)N[C@@H](CC(N)=O)C(=O)N[C@H](C(=O)N[C@@H](Cc1ccc(O)cc1)C(N)=O)[C@@H](C)O)C(C)C)[C@@H](C)O
notes: h-amylin derivative; disulfide bridge and C-terminal amide as told for human amylin; also called compound 50
B5: N^ε1-[(4S)-4-carboxy-4-(19-carboxynonadecanoylamino)butanoyl]-[Arg17,Pro21,Pro27,Lys35]-h-amylin (peptide)
peptide: K([γGlu-C20 diacid])CNTATCATQRLANFLRHSSPNFGAIPSSTNVGSKTY-NH2
modifications: disulfide 2-7; N-terminus assumed
SMILES: CC[C@H](C)[C@H](NC(=O)[C@H](C)NC(=O)CNC(=O)[C@H](Cc1ccccc1)NC(=O)[C@H](CC(N)=O)NC(=O)[C@@H]1CCCN1C(=O)[C@H](CO)NC(=O)[C@H](CO)NC(=O)[C@H](Cc1c[nH]cn1)NC(=O)[C@H](CCCNC(=N)N)NC(=O)[C@H](CC(C)C)NC(=O)[C@H](Cc1ccccc1)NC(=O)[C@H](CC(N)=O)NC(=O)[C@H](C)NC(=O)[C@H](CC(C)C)NC(=O)[C@H](CCCNC(=N)N)NC(=O)[C@H](CCC(N)=O)NC(=O)[C@@H](NC(=O)[C@H](C)NC(=O)[C@@H]1CSSC[C@H](NC(=O)[C@@H](N)CCCCNC(=O)CC[C@H](NC(=O)CCCCCCCCCCCCCCCCCCC(=O)O)C(=O)O)C(=O)N[C@@H](CC(N)=O)C(=O)N[C@@H]([C@@H](C)O)C(=O)N[C@@H](C)C(=O)N[C@@H]([C@@H](C)O)C(=O)N1)[C@@H](C)O)C(=O)N1CCC[C@H]1C(=O)N[C@@H](CO)C(=O)N[C@@H](CO)C(=O)N[C@H](C(=O)N[C@@H](CC(N)=O)C(=O)N[C@H](C(=O)NCC(=O)N[C@@H](CO)C(=O)N[C@@H](CCCCN)C(=O)N[C@H](C(=O)N[C@@H](Cc1ccc(O)cc1)C(N)=O)[C@@H](C)O)C(C)C)[C@@H](C)O
notes: h-amylin derivative; disulfide bridge and C-terminal amide as told for human amylin; also called compound 35
B6: N^ε1-[2-[2-[2-[[(4S)-4-carboxy-4-(19-carboxynonadecanoylamino)butanoyl]amino]ethoxy]ethoxy]acetyl]-[Arg17,Pro21,Pro27,Glu35]-h-amylin (peptide)
peptide: K([AEEA-γGlu-C20 diacid])CNTATCATQRLANFLRHSSPNFGAIPSSTNVGSETY-NH2
modifications: disulfide 2-7; N-terminus assumed
SMILES: CC[C@H](C)[C@H](NC(=O)[C@H](C)NC(=O)CNC(=O)[C@H](Cc1ccccc1)NC(=O)[C@H](CC(N)=O)NC(=O)[C@@H]1CCCN1C(=O)[C@H](CO)NC(=O)[C@H](CO)NC(=O)[C@H](Cc1c[nH]cn1)NC(=O)[C@H](CCCNC(=N)N)NC(=O)[C@H](CC(C)C)NC(=O)[C@H](Cc1ccccc1)NC(=O)[C@H](CC(N)=O)NC(=O)[C@H](C)NC(=O)[C@H](CC(C)C)NC(=O)[C@H](CCCNC(=N)N)NC(=O)[C@H](CCC(N)=O)NC(=O)[C@@H](NC(=O)[C@H](C)NC(=O)[C@@H]1CSSC[C@H](NC(=O)[C@@H](N)CCCCNC(=O)COCCOCCNC(=O)CC[C@H](NC(=O)CCCCCCCCCCCCCCCCCCC(=O)O)C(=O)O)C(=O)N[C@@H](CC(N)=O)C(=O)N[C@@H]([C@@H](C)O)C(=O)N[C@@H](C)C(=O)N[C@@H]([C@@H](C)O)C(=O)N1)[C@@H](C)O)C(=O)N1CCC[C@H]1C(=O)N[C@@H](CO)C(=O)N[C@@H](CO)C(=O)N[C@H](C(=O)N[C@@H](CC(N)=O)C(=O)N[C@H](C(=O)NCC(=O)N[C@@H](CO)C(=O)N[C@@H](CCC(=O)O)C(=O)N[C@H](C(=O)N[C@@H](Cc1ccc(O)cc1)C(N)=O)[C@@H](C)O)C(C)C)[C@@H](C)O
notes: h-amylin derivative; disulfide bridge and C-terminal amide as told for human amylin; also called compound 26

For the experiment, the target named is T1, human calcitonin receptor. Description: cell-based or functional assay.
Consider B1, for which the “hCTR funct. EC50” value amounted to 10 nM.
Then B2, with 2.39 nM.
With B3, the “hCTR funct. EC50” value worked out at 3 nM.
For B4, the “hCTR funct. EC50” value was found to be 0.662 nM.
For the molecule B5, the “hCTR funct. EC50” value was determined as 5.46 nM.
Then B6, with 6.34 nM.
